Assay results from patent US12281340B2, “Method of producing N-acyl-amino group-containing compound” (AJINOMOTO CO., INC., priority 2018, dated 2025).

Experiments:
Type in all cases: biochemical
Design in all cases: key: +: Detected; −: Not detected
[1] = Synthesis of N-caprinoyl-amino acid derivative, N-caprinoyl-D-amino acid and N-caprinoyl-peptide using purified acylamino acid synthetase, UPLC-MS detection; conditions: +ATP
Description: 0.2 mL of a reaction solution containing 50 mM Tris-HCl, 5 mM amino acid derivative or D-amino acid or peptide, 5 mM sodium caprate, 10 mM ATP, 10 mM MgCl2, 1 mM DTT, 50 μg/mL of the purified enzyme, pH 8.0 was incubated at 25° C. for 24 hours. After completion of the reaction, 0.8 mL of the reaction stop solution (1% (v/v) phosphoric acid, 75% (v/v) methanol) was added, and the mixture was filtrated through the filter followed by being subjected to the UPLC-MS analysis to detect a signal of a molecular weight corresponding to an N-caprinoyl-amino acid derivative, an N-caprinoyl-amino acid or an N-caprinoyl-peptide. A condition for the UPLC-MS analysis is as described in Example 2.
As a result of the UPLC-MS analysis, the signal of the molecular weight corresponding to the N-caprinoyl-amino acid derivative, or N-caprinoyl-amino acid, or N-caprinoyl-peptide was confirmed in the reaction solution containing the enzyme in combination with the amino acid derivative or the D-amino acid or the peptide shown in Table 4 below.

[2] = Synthesis of N-acylamino acids from various fatty acids using purified acylamino acid synthetase, UPLC-MS detection
Description: 0.1 mL of a reaction solution containing 50 mM Tris-HCl, 5 mM amino acid, 5 mM sodium fatty acid (3 mM of sodium palmitate or sodium stearate), 10 mM ATP, 10 mM MgCl2, 1 mM DTT, 200 μg/mL of the purified enzyme, pH 8.0 was shaken at 25° C. for 24 hours. When sodium palmitate or sodium stearate was used, methanol at a final concentration of 10% (v/v) was contained in the reaction solution. As the amino acid, L-Asp was used in AtGH3-6, OsGH3-8, AtGH3-5, AtGH3-12, L-Ile was used in AtJAR1, L-Ala was used in AtGH3-10, SsGH3, L-Glu was used in AtGH3-17, Gly was used in CfHP, L-Lys was used in PsIAAL, and L-Cys was used in PaHP. After completion of the reaction, 0.4 mL of the reaction stop solution (1% (v/v) phosphoric acid, 75% (v/v) methanol) was added, and the mixture was filtrated through the filter followed by being subjected to the UPLC-MS analysis to detect a signal of a molecular weight corresponding to the N-acylamino acid.
The condition for the UPLC-MS analysis is as follows.
(§1) Apparatus: ACQUITY UPLC (Waters)
Column: ACQUITY UPLC BEH C18 1.7 μm 2.1×100 mm Column (Waters), mobile phase A: 0.1% formic acid; mobile phase B: acetonitrile
• Flow rate: 0.6 mL/minute • Injection amount: 2 μL • Column temperature: 40° C. • Ionization method: ESI-negative
As a result of the UPLC-MS analysis, the signal of the molecular weight corresponding to the appropriate N-acylamino acid was confirmed in the reaction solution containing the enzyme in combination with sodium fatty acid shown in Table 7 below.

[3] = Synthesis of N-caprinoylamino acid using purified acylamino acid synthetase, UPLC-MS detection; conditions: +ATP
Description: 2.0 mL of a reaction solution containing 50 mM Tris-HCl, 5 mM amino acid, 5 mM sodium caprate, 10 mM ATP, 10 mM MgCl2, 1 mM DTT, 50 μg of the purified enzyme, pH 8.0 was incubated at 25° C. for 24 hours. After completion of the reaction, 0.8 mL of a reaction stop solution (1% (v/v) phosphoric acid, 75% (v/v) methanol) was added, and the mixture was filtrated through a filter followed by being subjected to the UPLC-MS analysis to detect a signal of a molecular weight corresponding to an N-caprinoyl amino acid.
A UPLC-MS analysis condition is as follows.
as §1
• Column: ACQUITY UPLC BEH C18 1.7 2.1×100 mm Column (Waters) • Mobile phase A: 0.1% formic acid • Mobile phase B: acetonitrile Gradient
• Flow rate: 0.6 mL/min • Injection amount: 2 μL • Column temperature: 40° C. • Ionization method: ESI-negative
As a result of the UPLC-MS analysis, the signal of the molecular weight corresponding to the N-caprinoyl amino acid was confirmed in the reaction solution combining the enzyme and the amino acid shown in Table 3 below.

- signal of molecular weight corresponding to N-caprinoyl compound ([1]; substrates Carnosine and sodium caprate): −
- signal of molecular weight corresponding to N-caprinoyl compound ([1]; substrates D-Ala and sodium caprate): +
- signal of molecular weight corresponding to N-caprinoyl compound ([1]; substrates D-Asp and sodium caprate): +
- signal of molecular weight corresponding to N-caprinoyl compound ([1]; substrates D-Cys and sodium caprate): −
- signal of molecular weight corresponding to N-caprinoyl compound ([1]; substrates D-Glu and sodium caprate): +
- signal of molecular weight corresponding to N-caprinoyl compound ([1]; substrates D-Ile and sodium caprate): +
- signal of molecular weight corresponding to N-caprinoyl compound ([1]; substrates D-Lys and sodium caprate): −
- signal of molecular weight corresponding to N-caprinoyl compound ([1]; substrates L-Asp-L-Phe and sodium caprate): −
- signal of molecular weight corresponding to N-caprinoyl compound ([1]; substrates L-Gly-L-Gly and sodium caprate): +
- signal of molecular weight corresponding to N-caprinoyl compound ([1]; substrates Sarcosine and sodium caprate): +
- signal of molecular weight corresponding to N-caprinoyl compound ([1]; substrates Taurine and sodium caprate): +
- signal of molecular weight corresponding to N-acylamino acid ([2]; substrates L-Ile and Capric acid): +
- signal of molecular weight corresponding to N-acylamino acid ([2]; substrates L-Ile and Caproic acid): +
- signal of molecular weight corresponding to N-acylamino acid ([2]; substrates L-Ile and Caprylic acid): +
- signal of molecular weight corresponding to N-acylamino acid ([2]; substrates L-Ile and Lauric acid): +
- signal of molecular weight corresponding to N-acylamino acid ([2]; substrates L-Ile and Linoleic acid): −
- signal of molecular weight corresponding to N-acylamino acid ([2]; substrates L-Ile and Palmitic acid): −
- signal of molecular weight corresponding to N-acylamino acid ([2]; substrates L-Ile and myristic acid): −
- signal of molecular weight corresponding to N-caprinoyl amino acid ([3]; substrates GABA and sodium caprate): +
- signal of molecular weight corresponding to N-caprinoyl amino acid ([3]; substrates Gly and sodium caprate): +
- signal of molecular weight corresponding to N-caprinoyl amino acid ([3]; substrates L-Ala and sodium caprate): +
- signal of molecular weight corresponding to N-caprinoyl amino acid ([3]; substrates L-Arg and sodium caprate): +
- signal of molecular weight corresponding to N-caprinoyl amino acid ([3]; substrates L-Asn and sodium caprate): +
- signal of molecular weight corresponding to N-caprinoyl amino acid ([3]; substrates L-Asp and sodium caprate): +
- signal of molecular weight corresponding to N-caprinoyl amino acid ([3]; substrates L-Cys and sodium caprate): −
- signal of molecular weight corresponding to N-caprinoyl amino acid ([3]; substrates L-Gln and sodium caprate): +
- signal of molecular weight corresponding to N-caprinoyl amino acid ([3]; substrates L-Glu and sodium caprate): +
- signal of molecular weight corresponding to N-caprinoyl amino acid ([3]; substrates L-His and sodium caprate): +
- signal of molecular weight corresponding to N-caprinoyl amino acid ([3]; substrates L-Ile and sodium caprate): +
- signal of molecular weight corresponding to N-caprinoyl amino acid ([3]; substrates L-Leu and sodium caprate): +
- signal of molecular weight corresponding to N-caprinoyl amino acid ([3]; substrates L-Lys and sodium caprate): −
- signal of molecular weight corresponding to N-caprinoyl amino acid ([3]; substrates L-Met and sodium caprate): +
- signal of molecular weight corresponding to N-caprinoyl amino acid ([3]; substrates L-Phe and sodium caprate): +
- signal of molecular weight corresponding to N-caprinoyl amino acid ([3]; substrates L-Pro and sodium caprate): +
- signal of molecular weight corresponding to N-caprinoyl amino acid ([3]; substrates L-Ser and sodium caprate): +
- signal of molecular weight corresponding to N-caprinoyl amino acid ([3]; substrates L-Thr and sodium caprate): +
- signal of molecular weight corresponding to N-caprinoyl amino acid ([3]; substrates L-Trp and sodium caprate): +
- signal of molecular weight corresponding to N-caprinoyl amino acid ([3]; substrates L-Tyr and sodium caprate): +
- signal of molecular weight corresponding to N-caprinoyl amino acid ([3]; substrates L-Val and sodium caprate): +
- signal of molecular weight corresponding to N-caprinoyl amino acid ([3]; substrates β-Ala and sodium caprate): +
B1: AtJAR1: Jasmonic acid-amido synthetase JAR1 from Arabidopsis thaliana, His-tagged (protein, listed as Arabidopsis thaliana)
chain: MLEKVETFDMNRVIDEFDEMTRNAHQVQKQTLKEILLKNQSAIYLQNCGLNGNATDPEEAFKSMVPLVTDVELEPYIKRMVDGDTSPILTGHPVPAISLSSGTSQGRPKFIPFTDELMENTLQLFRTAFAFRNRDFPIDDNGKALQFIFSSKQYISTGGVPVGTATTNVYRNPNFKAGMKSITSPSCSPDEVIFSPDVHQALYCHLLSGILFRDQVQYVFAVFAHGLVHAFRTFEQVWEEIVTDIKDGVLSNRITVPSVRTAMSKLLTPNPELAETIRTKCMSLSNWYGLIPALFPNAKYVYGIMTGSMEPYVPKLRHYAGDLPLVSHDYGSSEGWIAANVTPRLSPEEATFAVIPNLGYFEFLPVSETGEGEEKPVGLTQVKIGEEYEVVITNYAGLYRYRLGDVVKVIGFYNNTPQLKFICRRNLILSINIDKNTERDLQLSVESAAKRLSEEKIEVIDFSSYIDVSTDPGHYAIFWEISGETNEDVLQDCCNCLDRAFIDAGYVSSRKCKTIGALELRVVAKGTFRKIQEHFLGLGSSAGQFKMPRCVKPSNAKVLQILCENVVSSYFSTAF
modifications: His-tag
notes: Jasmonic acid-amido synthetase JAR1 from Arabidopsis thaliana, His-tagged
